The values that follow come from patent US20230280353A1, “DETECTION SYSTEM OF INTERACTION BETWEEN KNOWN MOLECULES AND PROTEINS BASED ON COVALENT CONNECTION AND IDENTIFICATION OR VERIFICATION METHOD THEREOF” (SHANGHAI JIAO TONG UNIVERSITY, priority 2021, published 2023).

One may read the Kd as the free concentration of one partner at which half of the binding sites on the other are occupied at equilibrium, for simple one-to-one binding. Read a low Kd as higher affinity. By koff is commonly meant a measure of how fast the partners let go of each other.

Sequences and labels used below:
T1: VacB, P21499
T1 chain: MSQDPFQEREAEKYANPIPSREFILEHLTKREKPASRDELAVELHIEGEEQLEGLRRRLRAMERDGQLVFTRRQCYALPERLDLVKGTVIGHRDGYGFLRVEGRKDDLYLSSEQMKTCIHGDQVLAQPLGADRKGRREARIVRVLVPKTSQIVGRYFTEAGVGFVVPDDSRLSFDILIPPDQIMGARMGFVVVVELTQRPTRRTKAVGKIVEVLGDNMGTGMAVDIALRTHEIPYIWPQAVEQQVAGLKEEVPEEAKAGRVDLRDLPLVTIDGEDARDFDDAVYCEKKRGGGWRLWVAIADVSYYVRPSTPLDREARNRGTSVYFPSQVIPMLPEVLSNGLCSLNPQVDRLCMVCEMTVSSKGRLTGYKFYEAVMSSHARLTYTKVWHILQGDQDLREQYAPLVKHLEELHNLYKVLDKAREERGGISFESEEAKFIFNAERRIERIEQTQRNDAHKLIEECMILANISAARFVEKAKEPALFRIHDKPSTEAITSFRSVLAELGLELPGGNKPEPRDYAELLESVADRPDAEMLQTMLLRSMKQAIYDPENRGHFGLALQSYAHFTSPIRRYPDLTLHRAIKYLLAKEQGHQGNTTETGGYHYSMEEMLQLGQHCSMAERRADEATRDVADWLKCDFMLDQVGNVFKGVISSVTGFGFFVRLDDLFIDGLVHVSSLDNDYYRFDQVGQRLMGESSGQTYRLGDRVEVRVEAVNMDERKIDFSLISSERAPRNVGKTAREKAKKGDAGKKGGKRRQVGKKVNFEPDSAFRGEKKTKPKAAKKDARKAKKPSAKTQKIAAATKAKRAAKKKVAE

T2: DksA, P0ABS1
T2 chain: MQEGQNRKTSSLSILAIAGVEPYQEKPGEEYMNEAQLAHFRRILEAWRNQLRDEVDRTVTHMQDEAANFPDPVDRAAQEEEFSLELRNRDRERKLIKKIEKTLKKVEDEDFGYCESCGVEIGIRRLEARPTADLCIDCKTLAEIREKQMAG

T3: VacB (UniProt P21499 1-813)
T3 sequence: T1 chain

B1: CheZ: biotin-modified protein CheZ with Avi tag (protein)
chain: MMQPSIKPADEHSAGDIIARIGSLTRMLRDSLRELGLDQAIAEAAEAIPDARDRLYYVVQMTAQAAERALNSVEASQPHQDQMEKSAKALTQRWDDWFADPIDLADARELVTDTRQFLADVPAHTSFTNAQLLEIMMAQDFQDLTGQVIKRMMDVIQEIERQLLMVLLENIPEQESRPKRENQSLLNGPQVDTSKAGVVASQDQVDDLLDSLGF
B2: CobB protein (biotin-modified, with Avi tag) (enzyme)
chain: MLSRRGHRLSRFRKNKRRLRERLRQRIFFRDKVVPEAMEKPRVLVLTGAGISAESGIRTFRAADGLWEEHRVEDVATPEGFDRDPELVQAFYNARRRQLQQPEIQPNAAHLALAKLQDALGDRFLLVTQNIDNLHERAGNTNVIHMHGELLKVRCSQSGQVLDWTGDVTPEDKCHCCQFPAPLRPHVVWFGEMPLGMDEIYMALSMADIFIAIGTSGHVYPAAGFVHEAKLHGAHTVELNLEPSQVGNEFAEKYYGPASQVVPEFVEKLLKGLKAGSIA
notes: also called biotinylated CobB protein
B3: CobB: Biotin-modified CobB protein with Avi tag; has deacetylase activity (protein)
chain: B2 chain
B4: DksA (other)
chain: T2 chain

Data set [1] addresses CobB protein (biotin-modified, with Avi tag) (UniProt P75960). The data set is described as follows: BLI; series 1000, 500, 250, 125, 62.5 nM; the filing does not say which partner was on the sensor. (In general: BLI is a label-free optical method that tracks binding on a fibre tip over time.)
Data set [2] has the same target. Nature of the data set: BLI; series 1000, 500, 250, 125 nM; the filing does not say which partner was on the sensor.
The subject of data set [3] is YTDHF1, YTDHF2, YTDHF3 proteins. The data set is described as follows: SPIDER verification (immunoblot) of biotinylated m6A RNA with YTDHF1, YTDHF2, YTDHF3. The format is binding. Particulars: 0.5 μM biotinylated m6A RNA; GFP antibody. The text has this:
The sequences of YTDHF1-GFP, YTDHF2-GFP and YTDHF3-GFP were constructed on pCDNA3.1 vector and transfected into HEK293T cells with Lipofectamine 2000 (ThermoFisher 118668).
Immunoblot analysis of GFP antibody was used.

Data set [4] in a line: Capture and mass spectrometry identification of m6A RNA interacting proteins. Format: binding. Particulars: 1 μM bait, HEK293T cell lysate. The method, then: HEK293T normal cells and SLIAC (Lys/Arg relabeled) cells were cultured and lysed with Thermo Fisher 78501 M-PER® Mammalian Protein Extraction to obtain cell lysates.
The reaction system was prepared as follows: 1 μM biotinylated m6A RNA, 5 μM SAm-Pup^E, 0.5 μM PafA7KR enzyme, 5 mM ATP, 5 mg HEK293T cell lysate or SILAC cell lysate were added, and buffer (50 mM Tris 8.0, 0.5 M NaCl, 20 mM MgCl2, 10% (v/v) Glycerol, 10 mM imidazole) was lysed to 5 ml. The system was incubated at 30° C. for 6h, and biotin agarose beads were added for incubation overnight at 4° C. Wash buffer 1 (8M urea, 50 mM Tris 8.0, 200 mM NaCl, 0.2% SDS), Wash Buffer 2 (8M urea, 50 mM Tris 8.0, 200 mM NaCl, 2% SDS), Wash buffer 3 (8M urea, 50 mM Tris 8.0, 200 mM NaCl), Wash buffer 4 (50 mM Tris 8.0, 0.5 mM EDTA, 1 mM DTT), Wash buffer 5 (50 mM NH4HCO3) were incubated at room temperature for 5 min and centrifuged at 1500 rpm for 4 min. The biotin agarose beads were transferred to a 1.5 mL centrifuge tube, centrifuged in a horizontal centrifuge with 1 mL Wash buffer 5, 1500 rpm for 4 min and washed repeatedly with Wash buffer 5 to obtain the reaction product. Trypsin was lysed and identified by mass spectrometry.

The target in a further data set is T4, ETHR protein (Mycobacterium tuberculosis, UniProt P9WMC1).
T4 construct: Flag (C); 6×His (C); made in house; host or cells: E. coli BL21 (DE3), pET28a
The format is binding.

Data set [5] concerns CSP series proteins (CSP1, CSP2, CSP3). Nature of the data set: SPIDER verification (Western blot) of c-di-GMP and CSP series short peptides. Format: binding. Particulars: 2 μM, CSP proteins 5 μM; compared with c-di-GMP without biotinylation. The method, then: The N-terminal sequences encoding CSP1, CSP2 and CSP3 were all labeled with Flag tags and constructed on PET32a vector, which was fused with thioredoxin for expression. The recombinant vector was transformed into E. coli BL21 (DE3) strain. The CSP1, CSP2 and CSP3 proteins were obtained by adding IPTG and inducing at 37° C. for 4h when OD600 was about 0.6 in 1 L of bacteria medium. The CSP1, CSP2 and CSP3 proteins were purified by nickel column.
After that, PafA7KR (1 μM) and ATP (10 mM) were added into the system and incubated at 30° C. for 6 h. Flag antibody was used for Western blot analysis.
(In general: A western blot detects proteins with antibodies after separation by electrophoresis.)

The subject of the next data set is CheAs protein. Format: binding. Particulars: CheZ 0, 0.1, 0.2, 0.4 μM; wild-type CheAs 0.2 μM.
Another data set concerns the target T1, VacB, P21499.
The target in the next data set is T2, DksA, P0ABS1.
Data set [6] addresses CobB interacting proteins found and purified (tested by BLI, FIGS. 8B-8F). The data set is described as follows: BLI.
In another data set the target is T3, VacB. The data set is described as follows: BLI; series 1000, 500, 250, 125, 62.5 nM; the filing does not say which partner was on the sensor.
A further data set concerns VacB and DksA proteins. Nature of the data set: CobB deacetylation of VacB and DksA (Western blot, acetylation antibody). Format: biochemical. Particulars: VacB and DksA co-incubated with CobB. The method, then:
CobB has the activity of deacetylase. CobB was co-incubated with VacB and DksA proteins, and the acetylation level of protein was detected by Western blot analysis of acetylation antibody.

Data set [7] addresses B2. Nature of the data set: BLI; series 7500, 5000, 2500, 1250 nM; the filing does not say which partner was on the sensor.

In [1], RoxA showed a Kd of 103 nM and a koff of 0.00124 s⁻¹.

On to RraA, for which, in data set [2], the Kd is 24.6 nM and the off-rate constant (koff) turned out to be 0.000201 s⁻¹.

In data set [1], GldA showed a Kd of 59.4 nM and a koff of 0.000295 s⁻¹.

Regarding “biotinylated m6A RNA: 5′-terminal biotin-modified m6A RNA, sequence CGUCUCGGCUCGGCUGCU (SEQ ID NO: 8) (5' biotin, m6A modification, chemistry not fully specified)”, the “protein-SAm-Pup^E complex bands” value in data set [3] is listed as “presence of complex bands only in the presence of biotinylated m6A RNA”. The “binding proteins obtained by mass spectrometry” value in [4] is “YTDHF1, YTDHF2 and YTDHF3”.

Consider biotinylated c-di-GMP, for which the “complex band of ETHR and SAm-Pup^E monomer” value at ETHR protein is given as “the detected complex bands become thicker”. In data set [5], the “migration of CSP series protein bands” value is “migrated significantly”.

Turning to `Nc1nc2c(ncn2[C@@H]2O[C@@H]3COP(=O)(O)O[C@H]4[C@@H](O)[C@H](n5cnc6c(=O)[nH]c(N)nc65)O[C@@H]4COP(=O)(O)O[C@H]3[C@H]2O)c(=O)[nH]1` [c-di-GMP], the “complex bands with excessive non-biotinylated competitor” value at ETHR protein (excessive non-biotinylated c-di-GMP added to compete with biotinylated c-di-GMP) is given as “the complex bands were basically unchanged”.

On to B1, for which, in the data set with CheAs protein, the “complex bands of CheAs and SAm-Pup^E monomer” value was “the detected complex bands become thicker”.

Regarding B2, in the data set with VacB, P21499, the “acetylation level of VacB (IB: Ac-K), with and without CobB” value is reported as “Ac-K band clear without CobB, almost gone with CobB; His (VacB) bands alike in both lanes; biotin-CobB band only in the + lane”; the “acetylation level of protein detected by Western blot analysis of acetylation antibody” value is listed as “the acetylation level of a group of proteins added with CobB decreased obviously”. Besides, in the data set with DksA, P0ABS1, the “acetylation level of DksA (IB: Ac-K), with and without CobB” value is given as “Ac-K band seen without CobB, not seen with CobB; His (DksA) bands alike in both lanes; biotin-CobB band only in the + lane”; the “acetylation level of protein detected by Western blot analysis of acetylation antibody” value is “the acetylation level of a group of proteins added with CobB decreased obviously”. The same molecule displayed a dissociation constant (Kd) in data set [6] of 25 to 772 nM. In the data set with VacB, this molecule yielded a Kd of 156 nM and an off-rate (koff) of 0.00163 s⁻¹.

For B3, in the data set on VacB and DksA proteins, the “acetylation level of protein” value is reported as “decreased obviously”.

In [7], B4 displayed a dissociation constant Kd of 772 nM and a koff of 0.00167 s⁻¹.
